# Test results from PMC4855144, “Novel Coronin7 interactions with Cdc42 and N-WASP regulate actin organization and Golgi morphology” (Scientific Reports, 2016).
# Assays:
# Assay in all cases: pull-down; Glutathione-Sepharose beads coated with GST alone or GST-GTPase fusions pre-loaded with GDP (DN) or GTPγS (CA), incubated with lysates of HEK293T cells expressing GFP-CRN7 WT or CRIB mutants; blot with GFP mAb K3-184-2 or anti-N-WASP; ImageJ quantification, input set at 100%
# Conditions in all cases: one partner purified
# [1] = molecular target: T1, GST-Cdc42 dominant negative (DN/T17N), preloaded with GDP (UniProt P60953 1-191, T17N)
# T1 construct: Preloaded with GDP; also called Cdc42DN; Cdc42 DN; source: E. coli BL21, purified (Glutathione Sepharose), held on glutathione-Sepharose beads
# [2] = molecular target: GST-Rac1 constitutively active (CA/Q61L), preloaded with GTPγS (UniProt P63000 1-192, Q61L)
# [3] = molecular target: GST-Rac1 dominant negative (DN/T17N), preloaded with GDP (UniProt P63000 1-192, T17N)
# T1 sequence (P60953 whole entry T17N): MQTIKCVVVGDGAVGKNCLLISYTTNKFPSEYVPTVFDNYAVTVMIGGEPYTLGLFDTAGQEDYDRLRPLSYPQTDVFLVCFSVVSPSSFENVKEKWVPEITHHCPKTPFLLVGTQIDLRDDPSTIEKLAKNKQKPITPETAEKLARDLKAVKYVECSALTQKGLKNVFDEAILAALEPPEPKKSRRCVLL
binder,measurement,setting,value
"GFP-CRN7 WT (human Coronin7, full length, GFP on its N-terminus) (natural protein, UniProt P57737 1-925, looked up, Coronin7 (CRN7), human, wild type, full length; CRIB motifs at 116-130 (NT-CRIB) and 582-599 (CT-CRIB); also called full-length CRN7; source: HEK293T, transfected (PEI), in lysate; not shown: GFP, N-terminal, kept) MNRFRVSKFRHTEARPPRRESWISDIRAGTAPSCRNHIKSSCSLIAFNSDRPGVLGIVPLQGQGEDKRRVAHLGCHSDLVTDLDFSPFDDFLLATGSADRTVKLWRLPGPGQALPSAPGVVLGPEDLPVEVLQFHPTSDGILVSAAGTTVKVWDAAKQQPLTELAAHGDLVQSAVWSRDGALVGTACKDKQLRIFDPRTKPRASQSTQAHENSRDSRLAWMGTWEHLVSTGFNQMREREVKLWDTRFFSSALASLTLDTSLGCLVPLLDPDSGLLVLAGKGERQLYCYEVVPQQPALSPVTQCVLESVLRGAALVPRQALAVMSCEVLRVLQLSDTAIVPIGYHVPRKAVEFHEDLFPDTAGCVPATDPHSWWAGDNQQVQKVSLNPACRPHPSFTSCLVPPAEPLPDTAQPAVMETPVGDADASEGFSSPPSSLTSPSTPSSLGPSLSSTSGIGTSPSLRSLQSLLGPSSKFRHAQGTVLHRDSHITNLKGLNLTTPGESDGFCANKLRVAVPLLSSGGQVAVLELRKPGRLPDTALPTLQNGAAVTDLAWDPFDPHRLAVAGEDARIRLWRVPAEGLEEVLTTPETVLTGHTEKICSLRFHPLAANVLASSSYDLTVRIWDLQAGADRLKLQGHQDQIFSLAWSPDGQQLATVCKDGRVRVYRPRSGPEPLQEGPGPKGGRGARIVWVCDGRCLLVSGFDSQSERQLLLYEAEALAGGPLAVLGLDVAPSTLLPSYDPDTGLVLLTGKGDTRVFLYELLPESPFFLECNSFTSPDPHKGLVLLPKTECDVREVELMRCLRLRQSSLEPVAFRLPRVRKEFFQDDVFPDTAVIWEPVLSAEAWLQGANGQPWLLSLQPPDMSPVSQAPREAPARRAPSSAQYLEEKSDQQKKEELLNAMVAKLGNREDPLPQDSFEGVDEDEWD",percent of input bound,[1],65 % of input
same,percent of input bound,[2],7 % of input
same,percent of input bound,[3],~17 % of input
